Experimental data as given in US20180030151A1 (MOGAM INSTITUTE FOR BIOMEDICAL RESEARCH, published 2018).
Where a chain is given by its changes, count along the chain named. Read-outs that look alike come from different tables or passages of the source.

Tests used:
[1] = target: T1, recombinant human TFPI (tissue factor pathway inhibitor) (human, UniProt P10646 29-304); assay: cell-based or functional assay
[2] = target: T1, recombinant human TFPI (tissue factor …); assay: cell-based or functional assay; remark: listed apart in the source
[3] = target: T1, recombinant human TFPI (tissue factor …); assay: cell-based or functional assay; remark: listed apart in the source
[4] = target: T1, recombinant human TFPI (tissue factor …); assay: cell-based or functional assay; remark: listed apart in the source
[5] = target: T1, recombinant human TFPI (tissue factor …); assay: SPR, Biacore T-200; IgG captured on protein A (CM5), TFPI as analyte
Experimental: Dissociation of the TFPI associated with the antibody was induced by running 10 mM glycine-HCl (pH 1.5) at a flow rate for 30 seconds. The affinities in terms of kinetic rate constants (Kₒₙ and Koff) and equilibrium dissociation constant (KD) were evaluated using Biacore T-200 evaluation software, and the results are shown in Table 24 below.

[6] = target: T1, recombinant human TFPI (tissue factor …); assay: cell-based or functional assay; remark: listed apart in the source
[7] = target: T1, recombinant human TFPI (tissue factor …); assay: cell-based or functional assay; remark: listed apart in the source
[8] = target: T1, recombinant human TFPI (tissue factor …); assay: cell-based or functional assay; remark: listed apart in the source

B1: clone 3241 (antibody, V domains shown)
VH: EVQLVESGGGLVKPGGSLRLSCAASGFTFSSYAMNWVRQAPGKGLEWVSTITTGGSYTYYADSVEGRFTISRDNAKNSLYLQMNSLRAEDTAVYYCARQDGNFLMDYWGQGTLVTVSS
VL: DVVMTQTPLSLPVTLGQPASISCKSSQSLLDIDGKTYLNWLQQRPGQSPKRLIYLVSKLDSGVPDRFTGSGSGTDFTLKISRVEAEDVGVYYCWQGTHFPFTFGQGTKVEIKR
notes: scFv on yeast at selection; human IgG4/kappa IgG as purified; also called No. 3241 antibody
[1]
  effect of inhibiting TFPI, FXa activity assay, Ab 10 nM: ~83%
  effect of inhibiting TFPI, FXa activity assay, Ab 20 nM: ~82%
[2]
  A405, TF/FVIIa/FX complex assay, Ab 1.56 nM: 0.157
  A405, TF/FVIIa/FX complex assay, Ab 3.13 nM: 0.171
  A405, TF/FVIIa/FX complex assay, Ab 6.25 nM: 0.197
  A405, TF/FVIIa/FX complex assay, Ab 12.5 nM: 0.305
  A405, TF/FVIIa/FX complex assay, Ab 25 nM: 0.911
  A405, TF/FVIIa/FX complex assay, Ab 50 nM: 0.935
  A405, TF/FVIIa/FX complex assay, Ab 100 nM: 0.937
[3]
  % of Normalized, TF/FVIIa/FX complex assay, Ab 1.56 nM: 17.2%
  % of Normalized, TF/FVIIa/FX complex assay, Ab 3.13 nM: 18.7%
  % of Normalized, TF/FVIIa/FX complex assay, Ab 6.25 nM: 21.5%
  % of Normalized, TF/FVIIa/FX complex assay, Ab 12.5 nM: 33.3%
  % of Normalized, TF/FVIIa/FX complex assay, Ab 25 nM: 99.6%
  % of Normalized, TF/FVIIa/FX complex assay, Ab 50 nM: 102%
  % of Normalized, TF/FVIIa/FX complex assay, Ab 100 nM: 102%
[4]
  FXa assay % of FXa alone, 2.5 nM Ab, 10 nM TFPI: 11.2%
  FXa assay % of FXa alone, 5 nM Ab, 10 nM TFPI: 50.9%
  FXa assay OD, 2.5 nM Ab, 10 nM TFPI: 0.091
  FXa assay OD, 5 nM Ab, 10 nM TFPI: 0.413
  FXa assay OD, 10 nM Ab, 10 nM TFPI: 0.677
  FXa assay OD, 20 nM Ab, 10 nM TFPI: 0.665
[5]
  Kd: 74 pM

B2: clone 1202 (antibody, V domains shown)
VH: B1 VH with S49G, E65D, Q82K
VL: B1 VL
notes: scFv on yeast at selection; human IgG4/kappa IgG as purified; also called No. 1202 antibody
[1]
  effect of inhibiting TFPI, FXa activity assay, Ab 10 nM: ~82%
  effect of inhibiting TFPI, FXa activity assay, Ab 20 nM: ~87%
[6]
  A405, TF/FVIIa/FX complex assay, Ab 1.56 nM: 0.043
  A405, TF/FVIIa/FX complex assay, Ab 3.13 nM: 0.051
  A405, TF/FVIIa/FX complex assay, Ab 6.25 nM: 0.059
  A405, TF/FVIIa/FX complex assay, Ab 12.5 nM: 0.091
  A405, TF/FVIIa/FX complex assay, Ab 25 nM: 0.509
  A405, TF/FVIIa/FX complex assay, Ab 50 nM: 0.843
  A405, TF/FVIIa/FX complex assay, Ab 100 nM: 0.859
[7]
  % of Normalized, TF/FVIIa/FX complex assay, Ab 1.56 nM: 5.1%
  % of Normalized, TF/FVIIa/FX complex assay, Ab 3.13 nM: 6%
  % of Normalized, TF/FVIIa/FX complex assay, Ab 6.25 nM: 6.9%
  % of Normalized, TF/FVIIa/FX complex assay, Ab 12.5 nM: 10.7%
  % of Normalized, TF/FVIIa/FX complex assay, Ab 25 nM: 60%
  % of Normalized, TF/FVIIa/FX complex assay, Ab 50 nM: 99.4%
  % of Normalized, TF/FVIIa/FX complex assay, Ab 100 nM: 101%
[8]
  FXa assay % of FXa alone, 2.5 nM Ab, 10 nM TFPI: 7.3%
  FXa assay % of FXa alone, 5 nM Ab, 10 nM TFPI: 46.2%
  FXa assay OD, 2.5 nM Ab, 10 nM TFPI: 0.0605
  FXa assay OD, 5 nM Ab, 10 nM TFPI: 0.382
  FXa assay OD, 10 nM Ab, 10 nM TFPI: 0.676
  FXa assay OD, 20 nM Ab, 10 nM TFPI: 0.72
[5]
  Kd: 9.47 pM

B3: clone 12 (antibody, V domains shown)
VH: B1 VH with S49G, Y57H, N102H
VL: B1 VL with Q27P
notes: human IgG4/kappa IgG as purified; also called No. 12 antibody
[1]
  effect of inhibiting TFPI, FXa activity assay, Ab 10 nM: ~82%
  effect of inhibiting TFPI, FXa activity assay, Ab 20 nM: ~82%
[6]
  A405, TF/FVIIa/FX complex assay, Ab 1.56 nM: 0.041
  A405, TF/FVIIa/FX complex assay, Ab 3.13 nM: 0.048
  A405, TF/FVIIa/FX complex assay, Ab 6.25 nM: 0.067
  A405, TF/FVIIa/FX complex assay, Ab 12.5 nM: 0.097
  A405, TF/FVIIa/FX complex assay, Ab 25 nM: 0.489
  A405, TF/FVIIa/FX complex assay, Ab 50 nM: 0.803
  A405, TF/FVIIa/FX complex assay, Ab 100 nM: 0.847
[7]
  % of Normalized, TF/FVIIa/FX complex assay, Ab 1.56 nM: 4.8%
  % of Normalized, TF/FVIIa/FX complex assay, Ab 3.13 nM: 5.6%
  % of Normalized, TF/FVIIa/FX complex assay, Ab 6.25 nM: 7.8%
  % of Normalized, TF/FVIIa/FX complex assay, Ab 12.5 nM: 11.4%
  % of Normalized, TF/FVIIa/FX complex assay, Ab 25 nM: 57.7%
  % of Normalized, TF/FVIIa/FX complex assay, Ab 50 nM: 94.6%
  % of Normalized, TF/FVIIa/FX complex assay, Ab 100 nM: 99.9%
[8]
  FXa assay % of FXa alone, 2.5 nM Ab, 10 nM TFPI: 7.4%
  FXa assay % of FXa alone, 5 nM Ab, 10 nM TFPI: 38.8%
  FXa assay OD, 2.5 nM Ab, 10 nM TFPI: 0.0615
  FXa assay OD, 5 nM Ab, 10 nM TFPI: 0.321
  FXa assay OD, 10 nM Ab, 10 nM TFPI: 0.68
  FXa assay OD, 20 nM Ab, 10 nM TFPI: 0.678
[5]
  Kd: 8.19 pM
